± gives the standard deviation.
Assay: protein stability index of a GFP-peptide fusion (GPS, HEK-293T) (PSI 1-6); higher = more stable
[1] = treatment: DMSO, c terminus: a fixed tail appended
[2] = treatment: MLN4924 1 uM, 8 h, c terminus: a fixed tail appended
[3] = treatment: DMSO, c terminus: native
[4] = treatment: MLN4924 1 uM, 8 h, c terminus: native
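Also: 24-mer peptide tiles fused after GFP, lentivirally expressed, FACS-sorted into six equal bins by GFP/DsRed ratio, decoded by Illumina sequencing, PSI is the read-weighted mean bin number.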

Sequence | protein stability index [1] | protein stability index [2] | protein stability index [3] | protein stability index [4]
LPGNHSTSQEIFRQRFRHLRYQET [ZNF232] | 3.13 ± 0.17 | 3.39 ± 0.19 |  | 
GYELGIISGALLQIKTLLALSCHE [SLC2A12] | 3.61 ± 0.26 | 3.71 ± 0.1 |  | 
AYGNRTECRNPQELESIRQDRDAL [FEM1B] | 4.71 ± 0.24 | 4.68 ± 0.16 |  | 
QNLLREKIMKLPLPESLKAYLTYF [PCMTD1] | 2.49 ± 0.53 | 2.12 ± 0.36 |  | 
LDGALRTFLKAFPLMGETQERERV [PSD2] | 2.96 ± 0.098 | 2.88 ± 0.25 |  | 
LSRKKRLELDDNLDTERPVQKRAR [TRIB3] | 4.79 ± 0.14 | 4.62 ± 0.37 |  | 
KNRYANVIAYDHSRVLLSAIEGIP [PTPRD] | 2.27 ± 0.82 | 2.26 ± 0.4 |  | 
YIIIVPLKKSRGKFIKPWESPDEM [PTPRD] | 2.5 ± 0.45 | 3.02 ± 1.5 |  | 
TTPLQLAIIRERSSCVKILLDHNA [ASB7] | 2.26 ± 0.16 | 2.34 ± 0.22 |  | 
AKSLSFRKGELVTASKAIIEKEYQ [ADD1] | 3.71 ± 0.19 | 3.94 ± 0.45 |  | 
GTVPGQAPRLAVAVPAVTSADSQF [LYSMD4] | 4.46 ± 0.28 | 4.55 ± 0.17 |  | 
RRLGNGVSDDLSSEEDGEARTQMI [PHTF1] | 5.38 ± 0.2 | 5.21 ± 0.23 |  | 
NLDTEELCEYFSQHLGEYENVLAA [NECAB1] | 2.83 ± 0.32 | 3.3 ± 0.66 |  | 
PKPDRLLVLKVLWNDFLMCYSSRP [SLC19A2] | 2.89 ± 0.2 | 3.08 ± 0.46 |  | 
KWKVGIPSDPLVSIGALISKAHLE [ALDH8A1] | 2.48 ± 0.11 | 2.74 ± 0.17 |  | 
SLQMSSAEMPHTETVSPLPSSMDL [NANOGP8] | 4.93 ± 0.15 | 4.94 ± 0.14 |  | 
ALLFTGIAVLGIVMLKRIHSLYRR [SCAMP3] | 2.2 ± 0.52 | 1.96 ± 0.25 |  | 
KVVQSLLNHGASVNNTTLTNSTPL [FEM1C] | 2.77 ± 0.21 | 2.83 ± 0.24 |  | 
RKLSSAVRSGIVEYLSLVKGGQDV [PRIM1] | 2.68 ± 0.36 | 2.77 ± 0.36 |  | 
WLDPGHTAVAQAPPAVASSSLFDL [SERTAD1] | 3.33 ± 0.27 | 3.38 ± 0.097 |  | 
RNQCRYCRLKKCFRAGMKKEAVQN [HNF4A] | 2.9 ± 0.33 | 3.19 ± 0.45 |  | 
PQAPAPATATDTFEAAPPAPAPAP [CEBPB] | 5.28 ± 0.51 | 5.38 ± 0.35 |  | 
SLNKQIAQLQDFVRAKGSQSGRHL [STX5] | 3.08 ± 0.23 | 3.14 ± 0.55 |  | 

Sequence | protein stability index [1] | protein stability index [2] | protein stability index [3] | protein stability index [4]
SRLQLLGATCMFVASKMKETIPLT [CCND1] | 2.69 ± 0.44 | 2.69 ± 0.66 |  | 
TASSISSSGGSSGSSSDNRTYRYS [DYRK1B] | 4.62 ± 0.051 | 4.67 ± 0.15 |  | 
LSYVMSGYRCFVCPVEYNNDTNSF [CDS2] | 2.78 ± 0.42 | 2.82 ± 0.45 |  | 
IFSFGQLPLALVTWVPMFLSTLLA [SOAT2] | 2.9 ± 0.43 | 2.72 ± 0.56 |  | 
GTHPEDHQGHSDQHHHHHHHHHGR [RHOBTB2] | 4.9 ± 0.16 | 5.01 ± 0.26 |  | 
TVAAETRAVIAWMEKIPFVLGGNL [CPXM2] | 2.56 ± 0.86 | 2.71 ± 0.6 |  | 
TIQGVPLSSYISINSDTGVLYALR [PCDHGA10] | 2.19 ± 0.096 | 2.14 ± 0.17 |  | 
TAVAQGGWRSLWLGWGPTALRDVP [SLC25A39] | 2.45 ± 0.14 | 1.89 ± 0.17 |  | 
SKLKMLERKGWLAPSPGVKEQAIW [PKD2L1] | 2.26 ± 0.35 | 2.54 ± 0.3 |  | 
FPESETKECPFRVNKVCGAACSSK [SERPINB5] | 2.8 ± 0.56 | 3.55 ± 0.66 |  | 
DKSEYLEMEEGVKESLCAKEEKCQ [KCNA4] | 5.68 ± 0.1 | 5.54 ± 0.19 |  | 
AARGKERCVRVFLEHGADPTVKDL [ASB7] | 3.73 ± 0.17 | 3.76 ± 0.38 |  | 
AYHDPMLKLSIMSEEELTHIFGDL [NET1] | 3.28 ± 0.24 | 3.5 ± 0.48 |  | 
LLLYRIRKDVGCNRFEVTLEKSNK [VPS39] | 2.21 ± 0.35 | 2.14 ± 0.3 |  | 
RRLLSYCKGRDHGVLDALHVLEGL [ZSWIM9] | 2.03 ± 0.21 | 2.16 ± 0.3 |  | 
ELQNQLAACTRALESSEELLETAN [FSD1] | 4.24 ± 0.37 | 4.37 ± 0.39 |  | 
GGNDLCVWNRKLDLLCKTSHLSDT [WDR41] | 3.16 ± 0.39 | 3.05 ± 0.18 |  | 
FPRDHTSLALVQNGDVSAPSAILR [ANKRD40] | 3.72 ± 0.34 | 3.97 ± 0.2 |  | 
PNFNFNISHQGDYAVLAAEPELQV [AASDHPPT] | 4 ± 0.09 | 3.93 ± 0.39 |  | 
MRTGQNTWESKNILAVSFAPLVQP [PCMTD1] | 2.84 ± 0.65 | 2.71 ± 0.46 |  | 
NGCRSGEIFAIDLRCGNQGKGWKA [DCAF4] | 2.31 ± 0.35 | 2.2 ± 0.29 |  | 
STMLGVFREDPKTREEFLTLIRS [GCH1] |  |  | 2.38 ± 0.64 | 2.84 ± 0.34
LVPETEDDRKLAALLKFHTLDSYE [YJU2B] | 3.62 ± 0.34 | 3.58 ± 0.22 |  | 

Sequence | protein stability index [1] | protein stability index [2] | protein stability index [3] | protein stability index [4]
EVKKKGKMKKLGQAMEEDLIVGLQ [HDAC6] | 4.55 ± 0.72 | 4.75 ± 0.14 |  | 
EDERVVGKEQGQNLARQWNNCAFL [RAP1B] | 4.23 ± 0.23 | 4.09 ± 0.25 |  | 
GQRGNTESKTDGDDTETVPSEQSH [TCF25] | 5.58 ± 0.21 | 5.54 ± 0.23 |  | 
GHEGSVSSCHFARDSSFLISGGFD [WDR88] | 2.98 ± 0.33 | 3.1 ± 0.13 |  | 
DFFWNETWYLKTIDICHDHFGWYL [DHCR7] | 3.26 ± 0.74 | 2.81 ± 0.35 |  | 
HTPLISKSQSLRSVRRSESWARPR [RASAL3] | 3.45 ± 0.29 | 3.66 ± 0.22 |  | 
TARFQRNHRLISEILSESVVPDVR [SMARCE1] |  | 3.23 ± 0.11 |  | 
AEFILLGLLEAPGLQPVVFVLFLF [OR3A1] | 2.68 ± 0.32 | 2.95 ± 0.4 |  | 
AHAVLGQHSHVVRYFSAWAEDDHM [WEE1] | 3.55 ± 0.43 | 3.71 ± 0.057 |  | 
LHLASDFFLKHPDKDVRLLVACCL [PDS5B] | 2.23 ± 0.79 | 2.39 ± 0.43 |  | 
SDDEMELEETEPPLEPEDALSDAE [P3H4] | 5.5 ± 0.27 | 5.59 ± 0.24 |  | 
APANVAKIQLRLAGQKRKHSEGRV [LOXL2] | 3.88 ± 0.13 | 4.53 ± 0.32 |  | 
LSDFEECEETGELFEEPAPQALAT [FCHSD1] | 5.21 ± 0.22 | 5.2 ± 0.23 |  | 
HMILENCSISKMEEEAGQTSIEPS [ZER1] | 5.14 ± 0.13 | 5.2 ± 0.18 |  | 
LRYTLWIPLYPLGCLAEAVSVIQS [HACD3] | 3.08 ± 0.49 | 3.11 ± 0.37 |  | 
MQPPPPGPLGDCLRDWEDLQQDFQ [TMEM120A] | 4.86 ± 0.2 | 4.66 ± 0.2 |  | 
LPPIPHVFSAGTGSAILPHFHHAF [PLAGL1] | 2.15 ± 0.28 | 2.11 ± 0.1 |  | 
SWLESCIVGWRCRVGQWVRMENVT [GMPPB] | 2.79 ± 0.63 | 2.69 ± 0.76 |  | 
KKKPGTAMCVGCGSQIHDQFILRV [ISL2] | 2.36 ± 0.37 | 2.23 ± 0.29 |  | 
GQRQPPPSEPTQGPEIVPRGAGP [DNAJC4] |  |  | 5.28 ± 0.51 | 5.49 ± 0.2
LRHDEVRTYFHEFGHVMHQICAQV [NLN] | 2.31 ± 0.12 | 2.22 ± 0.26 |  | 
LDQLLDMPAAGLAVQLRHAWNPED [SPSB4] | 3.44 ± 0.28 | 3.68 ± 0.16 |  | 
SKILSSKSKAYTVVGTPCYISPEL [NEK8] | 2.82 ± 0.12 | 2.88 ± 0.37 |  | 

Sequence | protein stability index [1] | protein stability index [2] | protein stability index [3] | protein stability index [4]
LKKEPGHPWKWSNGKEFNNWFNVT [CD69] | 2.14 ± 0.13 | 2.23 ± 0.25 |  | 
QDKSESLSDNATAFSNRSKQLRRQ [VAMP4] | 5.36 ± 0.4 | 5.17 ± 0.21 |  | 
TIKPRRVEPVCSGLQAQILHCYRD [CHCHD6] | 2.98 ± 0.051 | 2.98 ± 0.21 |  | 
PSHGSLSHSKAPSGSQMSHNAVTS [NCF4] | 4.55 ± 0.1 | 4.83 ± 0.37 |  | 
DREVDAATSATSHTRSLNSIIHQM [FBF1] | 4.09 ± 0.15 | 4.21 ± 0.28 |  | 
DMERFMEEMRELRRKIRELQLRYS [BEX5] | 2.44 ± 0.36 | 2.56 ± 0.6 |  | 
STPQGKGEVVKIPSRVHGSLEPFR [PWWP2B] | 3.86 ± 0.16 | 4.03 ± 0.28 |  | 
ILIIRFEMPYNIWCDGCKNHIGMG [YJU2B] | 3.24 ± 0.36 | 2.96 ± 0.71 |  | 
HCASPPPSSNNKELFYRVNYIGTK [NSDHL] | 3.18 ± 0.17 | 3.31 ± 0.19 |  | 
YAVEASTMAQHAEVLVKSNNLTDR [CARM1] | 4.16 ± 0.14 | 4.64 ± 0.34 |  | 
LEELGTLNVFQTVSRMRTQRAFSI [PTPN9] | 2.48 ± 0.12 | 2.23 ± 0.17 |  | 
IDGIQAIYGRSQNPVQPIGPQTPK [MMP1] | 3.97 ± 0.074 | 4.07 ± 0.36 |  | 
FLHLRTHTEERPYECNHCGKGFRH [ZNF8] | 2.79 ± 0.34 | 2.97 ± 0.36 |  | 
PFGESNGNGVHVCNVKYKRWALLS [KLHDC10] | 2.08 ± 0.22 | 2.26 ± 0.33 |  | 
ERVVREALEKLRSEMEEEKRQAVN [ZMYND11] | 4.59 ± 0.46 | 4.64 ± 0.063 |  | 
IVRLHDSISEEGFHYLVFDLVTGG [CAMK2B] | 2.85 ± 0.66 | 2.65 ± 0.52 |  | 
CGINANDVKKLEEAGFHTVEAVAY [RAD51] | 2.58 ± 0.25 | 2.47 ± 0.22 |  | 
GPSTPSPVAAQFTSEGTTLSGVDL [FCHO1] | 5.2 ± 0.4 | 4.96 ± 0.53 |  | 
MWGQSLLPPVSTSFTTGGLRIPFP [TNXB] | 2.3 ± 0.41 | 2.42 ± 0.16 |  | 
KLKLVALHKQVLMGPYNPDTCPEV [ACBD3] | 2.38 ± 0.28 | 2.72 ± 0.32 |  | 

Reference: the supplement of paper PMC10567573
